Patent US10562957B2, “Albumin-purification method comprising a nanofiltration step, solution, and composition for therapeutic use containing the same” (LABORATOIRE FRANCAIS DU FRACTIONNEMENT ET DES …, priority 2004, dated 2020)

Target: von Willebrand factor (vWf) (Homo sapiens, UniProt P04275)
Test: Stabilisation of vWf by nanofiltered albumin: freeze-drying and dry heating at 80° C. for 72 hours
Type: physicochemical
Details: preliminary tests: vWf solution with glycine and arginine, no albumin, dry heating 80° C.
Procedure: The power of the nanofiltered albumin to stabilise von Willebrand factor (vWf) was assessed using dry heating tests of vWf at 80° C. for 72 hours.
These solutions are then submitted to freeze-drying (45±3 hours) and dry heating as defined above. After heating, the addition of purified water for injection (PWI) to the dry residues reconstitutes solutions A11-A12. The following parameters are analysed: appearance of the solution, dissolution time, activity of vWf and multimeric profile, as measured by electrophoresis.

activity of vWf (vWf:Ag) compared to the non-heated vWf: > 82%
Substance: vWf: von Willebrand factor solution stabilised with glycine and arginine, without albumin
multimeric profile: not maintained
